Substitutions are numbered along the chain they refer to.
B1: Fcmut-10 (antibody, human IgG2, kappa)
heavy: QVQLVQSGAEVKKPGSSVKVSCKASGYSFSSYNIHWVRQAPGQGLEWMGYIAPFQGDSRYNQKFKGRVTITADKSTSTAYMELSSLRSEDTAVYYCARLNRGNSLDYWGQGTLVTVSSASTKGPSVFPLAPCSRSTSESTAALGCLVKDYFPEPVTVSWNSGALTSGVHTFPAVLQSSGLYSLSSVVTVPSSNFGTQTYTCNVDHKPSNTKVDKTVERKCCVECPPCPAPPVAGPSVFLFPPKPKDTLMISRTPEVTCVVVDVSHEDPEVQFNWYVDGVEVHNAKTKPREEQFNSTFRVVSVLTVVHQDWLNGKEYKCKVSNKGLAPIEKTISKTKGQPREPQVYTLPPSREEMTKNQVSLTCLVKGFYPSDISVEWESNGQPENNYKTTPPMLDSDGSFFLYSKLTVDKSRWQQGNVFSCSVMHEALHNHYTQKSLSLSPGK
light: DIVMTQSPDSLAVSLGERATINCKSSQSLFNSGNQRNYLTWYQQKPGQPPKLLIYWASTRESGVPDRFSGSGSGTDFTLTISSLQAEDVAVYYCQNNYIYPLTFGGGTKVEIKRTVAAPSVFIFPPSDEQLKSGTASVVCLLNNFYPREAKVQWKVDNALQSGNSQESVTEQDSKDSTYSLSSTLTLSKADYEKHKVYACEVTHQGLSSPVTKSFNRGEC
notes: IgG2-mut: deletion of 329 (EU index); anti-claudin18.2 variable regions of Fcmut-01
B2: Fcmut-11 (antibody, human IgG2, kappa)
heavy: B1 heavy with A326G
light: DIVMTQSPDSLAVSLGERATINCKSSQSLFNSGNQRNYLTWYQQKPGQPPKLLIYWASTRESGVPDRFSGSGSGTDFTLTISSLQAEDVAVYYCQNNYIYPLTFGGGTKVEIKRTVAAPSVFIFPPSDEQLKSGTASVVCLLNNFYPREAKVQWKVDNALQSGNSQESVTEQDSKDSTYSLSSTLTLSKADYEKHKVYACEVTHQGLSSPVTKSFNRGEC
notes: IgG2-mut: deletion of 329, G at 330 (EU index)
B3: Fcmut-14 (antibody, human IgG2, kappa)
heavy: B1 heavy with V232A
light: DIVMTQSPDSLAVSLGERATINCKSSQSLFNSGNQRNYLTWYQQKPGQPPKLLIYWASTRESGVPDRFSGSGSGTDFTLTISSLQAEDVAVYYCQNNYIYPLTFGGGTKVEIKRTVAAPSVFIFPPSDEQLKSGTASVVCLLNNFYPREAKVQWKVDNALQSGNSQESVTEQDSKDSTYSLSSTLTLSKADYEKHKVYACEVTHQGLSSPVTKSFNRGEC
notes: IgG2-mut: A at 234, deletion of 329 (EU index)
B4: Fcmut-15 (antibody, human IgG2, kappa)
heavy: B1 heavy with V232A, A326G
light: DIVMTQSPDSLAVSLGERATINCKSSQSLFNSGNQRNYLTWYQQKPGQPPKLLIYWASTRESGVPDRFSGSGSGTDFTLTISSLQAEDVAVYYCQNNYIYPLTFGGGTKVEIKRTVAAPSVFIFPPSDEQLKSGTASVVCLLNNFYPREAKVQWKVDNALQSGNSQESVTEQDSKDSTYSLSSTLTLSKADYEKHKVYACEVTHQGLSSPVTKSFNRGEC
notes: IgG2-mut: A at 234, deletion of 329, G at 330 (EU index)
B5: Fcmut-18 (antibody, human IgG4 S228P, kappa)
heavy: QVQLVQSGAEVKKPGSSVKVSCKASGYSFSSYNIHWVRQAPGQGLEWMGYIAPFQGDSRYNQKFKGRVTITADKSTSTAYMELSSLRSEDTAVYYCARLNRGNSLDYWGQGTLVTVSSASTKGPSVFPLAPCSRSTSESTAALGCLVKDYFPEPVTVSWNSGALTSGVHTFPAVLQSSGLYSLSSVVTVPSSSLGTKTYTCNVDHKPSNTKVDKRVESKYGPPCPPCPAPEFLGGPSVFLFPPKPKDTLMISRTPEVTCVVVDVSQEDPEVQFNWYVDGVEVHNAKTKPREEQFNSTYRVVSVLTVLHQDWLNGKEYKCKVSNKGLSSIEKTISKAKGQPREPQVYTLPPSQEEMTKNQVSLTCLVKGFYPSDIAVEWESNGQPENNYKTTPPVLDSDGSFFLYSRLTVDKSRWQEGNVFSCSVMHEALHNHYTQKSLSLSLGK
light: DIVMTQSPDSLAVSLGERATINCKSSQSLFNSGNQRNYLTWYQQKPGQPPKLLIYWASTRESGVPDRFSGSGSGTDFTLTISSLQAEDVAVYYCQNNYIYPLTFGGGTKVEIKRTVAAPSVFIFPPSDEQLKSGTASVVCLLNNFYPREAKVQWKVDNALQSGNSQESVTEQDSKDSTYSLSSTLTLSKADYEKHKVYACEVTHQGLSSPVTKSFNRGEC
notes: IgG4-mut: deletion of 329 (EU index)
B6: Fcmut-13 (antibody, human IgG2, kappa)
heavy: QVQLVQSGAEVKKPGSSVKVSCKASGYSFSSYNIHWVRQAPGQGLEWMGYIAPFQGDSRYNQKFKGRVTITADKSTSTAYMELSSLRSEDTAVYYCARLNRGNSLDYWGQGTLVTVSSASTKGPSVFPLAPCSRSTSESTAALGCLVKDYFPEPVTVSWNSGALTSGVHTFPAVLQSSGLYSLSSVVTVPSSNFGTQTYTCNVDHKPSNTKVDKTVERKCCVECPPCPAPPAAGPSVFLFPPKPKDTLMISRTPEVTCVVVDVSHEDPEVQFNWYVDGVEVHNAKTKPREEQFNSTFRVVSVLTVVHQDWLNGKEYKCKVSNKGLPAPIEKTISKTKGQPREPQVYTLPPSREEMTKNQVSLTCLVKGFYPSDISVEWESNGQPENNYKTTPPMLDSDGSFFLYSKLTVDKSRWQQGNVFSCSVMHEALHNHYTQKSLSLSPGK
light: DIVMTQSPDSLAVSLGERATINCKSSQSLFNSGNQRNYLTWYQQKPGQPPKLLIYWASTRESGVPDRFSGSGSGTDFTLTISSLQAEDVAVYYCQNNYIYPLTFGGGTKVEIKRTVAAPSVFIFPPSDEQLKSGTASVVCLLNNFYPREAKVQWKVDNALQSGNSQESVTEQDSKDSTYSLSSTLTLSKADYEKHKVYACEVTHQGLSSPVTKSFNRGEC
notes: IgG2-mut: A at 234 (EU index)
B7: Fcmut-12 (antibody, human IgG2, kappa)
heavy: QVQLVQSGAEVKKPGSSVKVSCKASGYSFSSYNIHWVRQAPGQGLEWMGYIAPFQGDSRYNQKFKGRVTITADKSTSTAYMELSSLRSEDTAVYYCARLNRGNSLDYWGQGTLVTVSSASTKGPSVFPLAPCSRSTSESTAALGCLVKDYFPEPVTVSWNSGALTSGVHTFPAVLQSSGLYSLSSVVTVPSSNFGTQTYTCNVDHKPSNTKVDKTVERKCCVECPPCPAPPVAGPSVFLFPPKPKDTLMISRTPEVTCVVVDVSHEDPEVQFNWYVDGVEVHNAKTKPREEQFNSTFRVVSVLTVVHQDWLNGKEYKCKVSNKGLPIEKTISKTKGQPREPQVYTLPPSREEMTKNQVSLTCLVKGFYPSDISVEWESNGQPENNYKTTPPMLDSDGSFFLYSKLTVDKSRWQQGNVFSCSVMHEALHNHYTQKSLSLSPGK
light: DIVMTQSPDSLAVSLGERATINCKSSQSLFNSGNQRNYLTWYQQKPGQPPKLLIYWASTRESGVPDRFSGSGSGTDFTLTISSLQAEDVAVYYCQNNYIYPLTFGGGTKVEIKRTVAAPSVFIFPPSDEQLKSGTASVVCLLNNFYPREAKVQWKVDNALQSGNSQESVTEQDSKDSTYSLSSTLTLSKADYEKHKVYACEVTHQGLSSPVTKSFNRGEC
notes: IgG2-mut: deletion of 329 and 330 (EU index)
B8: Fcmut-16 (antibody, human IgG2, kappa)
heavy: B7 heavy with V232A
light: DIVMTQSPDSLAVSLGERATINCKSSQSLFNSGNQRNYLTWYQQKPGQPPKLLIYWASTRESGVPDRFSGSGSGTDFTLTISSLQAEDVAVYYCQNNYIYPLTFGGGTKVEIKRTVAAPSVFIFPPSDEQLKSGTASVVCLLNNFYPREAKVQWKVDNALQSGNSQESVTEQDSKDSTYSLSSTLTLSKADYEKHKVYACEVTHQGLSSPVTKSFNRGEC
notes: IgG2-mut: A at 234, deletion of 329 and 330 (EU index)

target: T1, human C1q (human, UniProt P02745 23-245; P02746 28-253; P02747 29-245); test: BLI (Octet), biotinylated antibody on SA sensor
T1 construct: Bought C1q (Complement Technology); also called C1q antigen
T1 sequence (P02745 23-245 limits assumed, chain 1 of 3): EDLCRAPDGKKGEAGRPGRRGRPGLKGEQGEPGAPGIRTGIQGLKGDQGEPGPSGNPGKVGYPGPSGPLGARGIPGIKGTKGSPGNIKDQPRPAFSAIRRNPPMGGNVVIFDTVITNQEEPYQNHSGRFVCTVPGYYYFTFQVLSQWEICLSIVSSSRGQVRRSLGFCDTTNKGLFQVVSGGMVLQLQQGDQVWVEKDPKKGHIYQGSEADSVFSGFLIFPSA
T1 sequence (P02746 28-253 limits assumed, chain 2 of 3): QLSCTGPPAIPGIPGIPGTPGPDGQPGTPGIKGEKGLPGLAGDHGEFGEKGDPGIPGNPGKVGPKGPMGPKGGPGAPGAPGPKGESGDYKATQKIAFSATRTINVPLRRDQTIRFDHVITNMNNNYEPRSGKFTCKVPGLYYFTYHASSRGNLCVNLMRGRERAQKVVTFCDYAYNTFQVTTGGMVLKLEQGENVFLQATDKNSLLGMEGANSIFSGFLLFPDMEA
T1 sequence (P02747 29-245 limits assumed, chain 3 of 3): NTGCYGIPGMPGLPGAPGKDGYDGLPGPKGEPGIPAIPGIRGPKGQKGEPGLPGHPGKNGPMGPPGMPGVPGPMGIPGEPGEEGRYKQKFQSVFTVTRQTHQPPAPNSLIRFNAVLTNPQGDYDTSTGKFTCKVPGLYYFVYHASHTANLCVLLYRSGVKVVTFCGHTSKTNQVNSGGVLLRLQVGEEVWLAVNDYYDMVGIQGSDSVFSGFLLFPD
Description: The antibody was diluted to approximately 100 nM, and C1q (Δ099, Complement Technology) was diluted to 40 nM.
Detection was conducted using Fortebio Octet Red96e, and the sensors were arranged according to the positions of the samples. […] After the experiment was completed, KD values were analyzed using ForteBio Octet analysis software, the coordinate axis data were derived, and Graphpad Prism 8 software was used for plotting.

Binding result, no binding (tested: C1q 40 nM):
B1
B2
B3
B4
B5
B6
B7
B8

Reference: patent US20240228579A1 (Innovent, published 2024)
